Assay results taken from patent US20200370050A1 (published 2020).

Assays:
FLAG-CRAFΔN (193-648) = target: T1, FLAG-CRAFΔN (193-648) (human, UniProt P04049 193-648); test: co-immunoprecipitation from M7609 cell lysate on anti-FLAG M2 magnetic beads, Western blot with anti-GSTP1
T1 construct: Expressed in M7609 cells from a pCMV6-Entry vector; also called CRAF protein with a deletion at the N-terminal moiety; not shown: FLAG tag at the C-terminus (plasmid pCMV6-Myc-DDK-CRAFΔN)
Experimental: (§1) The transfected cells were used for coimmunoprecipitation. The cells were lysed by incubation in 0.5% NP-40 lysis buffer (0.5% NP-40, 20 mM HEPES pH 7.4, 150 mM NaCl, 1 mM MgCl₂, 1 mM EGTA, 10% glycerol, Complete, Mini (Roche Diagnostics) and PhosSTOP (Roche Diagnostics)) on ice for 30 min. Centrifugation was performed to give a supernatant as a cell lysate. The cell lysates obtained from the samples and containing the same amount of protein were each incubated with anti-FLAG M2 magnetic beads (Sigma-Aldrich) at 4° C. for 2 h to overnight, so that each FLAG-tagged protein was attached to the beads. The beads were washed four times with 0.5% NP-40 lysis buffer.
(§2) Each sample for western blotting was prepared from the beads obtained after the coimmunoprecipitation, and then subjected to SDS-PAGE for protein separation. The separated protein was transferred to a PVDF membrane. The membrane was incubated with a primary antibody solution and then washed. The primary antibody used was an anti-GSTP1 antibody (Medical & Biological Laboratories Co., Ltd.), an anti-FLAG antibody (F3165, Sigma-Aldrich), or an anti-GAPDH antibody (Abcam plc.). The membrane was then incubated with a secondary antibody (goat secondary antibody to rabbit or mouse IgG) solution and then washed. The signal on the membrane was visualized using ECL or ECL prime Western blotting detection system (GE Healthcare). […]

FLAG-BRAF (1-766) = target: T2, FLAG-BRAF (1-766) (Homo sapiens (Human), UniProt P15056 1-766); test: as above
T2 construct: Expressed in M7609 cells from plasmid pCV6-Myc-DDK-BRAF (OriGene Technologies); also called full-length BRAF protein; BRAF with the extension; not shown: FLAG tag (DDK tag) at the C-terminus
T2 sequence (P15056 whole entry): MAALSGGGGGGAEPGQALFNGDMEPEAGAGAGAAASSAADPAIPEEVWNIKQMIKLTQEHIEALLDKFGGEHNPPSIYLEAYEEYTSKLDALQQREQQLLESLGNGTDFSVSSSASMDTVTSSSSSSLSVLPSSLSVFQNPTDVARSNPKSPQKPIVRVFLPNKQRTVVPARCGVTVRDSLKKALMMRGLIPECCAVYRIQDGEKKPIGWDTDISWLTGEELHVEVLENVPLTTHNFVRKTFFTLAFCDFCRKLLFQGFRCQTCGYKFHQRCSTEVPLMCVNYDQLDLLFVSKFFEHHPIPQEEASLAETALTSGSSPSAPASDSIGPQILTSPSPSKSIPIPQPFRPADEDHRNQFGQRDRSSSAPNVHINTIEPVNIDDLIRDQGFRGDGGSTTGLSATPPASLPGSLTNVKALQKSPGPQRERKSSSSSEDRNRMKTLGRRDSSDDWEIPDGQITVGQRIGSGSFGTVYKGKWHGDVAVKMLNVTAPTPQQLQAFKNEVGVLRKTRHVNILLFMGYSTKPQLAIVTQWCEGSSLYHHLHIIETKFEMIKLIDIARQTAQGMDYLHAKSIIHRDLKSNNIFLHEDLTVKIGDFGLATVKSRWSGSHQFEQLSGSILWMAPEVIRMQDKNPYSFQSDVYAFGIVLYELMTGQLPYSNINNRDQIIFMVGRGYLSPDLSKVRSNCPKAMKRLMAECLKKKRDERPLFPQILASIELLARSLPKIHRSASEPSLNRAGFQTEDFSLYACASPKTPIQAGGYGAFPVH
Experimental: as §1, §2

B1: GSTP1 (endogenous, in lysates of KRAS mutation-positive colon cancer cells) (enzyme)
chain: PPYTVVYFPVRGRCAALRMLLADQGQSWKEEVVTVETWQEGSLKASCLYGQLPKFQDGDLTLYQSNTILRHLGRTLGLYGKDQQEAALVDMVNDGVEDLRCKYISLIYTNYEAGKDDYVKALPGQLKPFETLLSQNQGGKTFIVGDQISFADYNLLDLLLIHEVLAPGCLDAFPLLSAYVGRLSARPKLKAFLASPEYVNLPINGNGKQ
notes: also called glutathione S-transferase pi; endogenous GSTP1
B1: no binding (FLAG-CRAFΔN (193-648)); no binding (FLAG-BRAF (1-766)).
